Experimental findings from the supplement of paper PMC9112550, “Optimization of the antimicrobial peptide Bac7 by deep mutational scanning” (BMC Biology, 2022) are described below.
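Note: peptides expressed intracellularly from a pBAD plasmid library in pooled LB shake-flask culture, induced with 0.3% L-arabinose, DNA abundance read by NGS, three biological replicates, DESeq2 with apeglm shrinkage.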

The series concerns Escherichia coli TOP10. The series is described as follows: shrunken log2 fold change of peptide-encoding DNA abundance (4.5 h post-induction vs induction); higher = less antimicrobial activity (less host growth inhibition). The settings on record: time post-induction: 4.5 h; library: site-saturation at positions 5, 18, 19, 20.
RRIRQRPPRLPRPRPRPSFAPRP: the “shrunken log2 fold change” value is 0.0485.
For RRIRYRPPRLPRPRPRPWSGPRP the value was -0.184; for RRIRHRPPRLPRPRPRPFMNPRP, -0.0862; for RRIRQRPPRLPRPRPRPNPTPRP, 0.00513.
For RRIRNRPPRLPRPRPRPMIGPRP the value was -0.536; for RRIRIRPPRLPRPRPRPRGEPRP, 0.0673.
To RRIRRRPPRLPRPRPRPWHGPRP belongs -0.202; to RRIRNRPPRLPRPRPRPMDNPRP, -0.105.
On to RRIRSRPPRLPRPRPRPMKGPRP, for which the “shrunken log2 fold change” value is -0.311.
For RRIRNRPPRLPRPRPRPRPFPRP the value was 0.472; for RRIRVRPPRLPRPRPRPKIMPRP, -0.193; for RRIRYRPPRLPRPRPRPEYKPRP, -0.856.
For RRIRQRPPRLPRPRPRPSCKPRP the value was -0.259; for RRIRWRPPRLPRPRPRPYFKPRP, -0.839.
For RRIRRRPPRLPRPRPRPAILPRP the value was -0.017; for RRIRWRPPRLPRPRPRPFWKPRP, -0.136; for RRIRIRPPRLPRPRPRPDWCPRP, -0.149.
Take RRIRQRPPRLPRPRPRPCCCPRP: the “shrunken log2 fold change” value was determined as 0.0589.
RRIRDRPPRLPRPRPRPETIPRP: the “shrunken log2 fold change” value was found to be 0.17.
For RRIRARPPRLPRPRPRPIIHPRP the value was -0.216; for RRIRERPPRLPRPRPRPSNKPRP, -0.811.
To RRIRERPPRLPRPRPRPESQPRP belongs -0.101; to RRIRLRPPRLPRPRPRPNNVPRP, -0.395.
To RRIRERPPRLPRPRPRPLWCPRP belongs -0.0233.
As to RRIRWRPPRLPRPRPRPRPTPRP, the “shrunken log2 fold change” value worked out at 0.547.
For RRIRYRPPRLPRPRPRPSYAPRP the value was -0.149; for RRIRLRPPRLPRPRPRPGILPRP, -0.105.
As to RRIRNRPPRLPRPRPRPMCNPRP, the “shrunken log2 fold change” value was -0.0631.
For RRIRDRPPRLPRPRPRPYVNPRP the value was -1.59; for RRIRSRPPRLPRPRPRPVAWPRP, 0.0469; for RRIRTRPPRLPRPRPRPDWFPRP, -0.112.
As for RRIRMRPPRLPRPRPRPSLMPRP, the “shrunken log2 fold change” value turned out to be 0.428.
For RRIRPRPPRLPRPRPRPINVPRP, the “shrunken log2 fold change” value was -0.366.
For RRIRGRPPRLPRPRPRPHNKPRP the value was -0.09; for RRIRDRPPRLPRPRPRPGMWPRP, 0.634.
To RRIRARPPRLPRPRPRPIRTPRP belongs 0.0627.
For RRIRWRPPRLPRPRPRPLNIPRP the value was -0.211; for RRIRLRPPRLPRPRPRPSVPPRP, -0.185; for RRIRNRPPRLPRPRPRPMGYPRP, -0.00459.
In the case of RRIRYRPPRLPRPRPRPCIQPRP, the “shrunken log2 fold change” value was -0.172.
For RRIRMRPPRLPRPRPRPFHQPRP the value was -0.0752; for RRIRSRPPRLPRPRPRPMASPRP, 0.088.
For RRIRVRPPRLPRPRPRPWHWPRP the value was -0.0605; for RRIRCRPPRLPRPRPRPGHKPRP, -0.514; for RRIRKRPPRLPRPRPRPAQWPRP, 0.421.
To RRIRARPPRLPRPRPRPYCVPRP belongs 0.118; to RRIRDRPPRLPRPRPRPFMMPRP, -0.265; to RRIRNRPPRLPRPRPRPGNIPRP, -0.161.
On to RRIRFRPPRLPRPRPRPTGAPRP, for which the “shrunken log2 fold change” value was determined as 0.257.
To RRIRARPPRLPRPRPRPDKEPRP belongs 0.0435; to RRIRVRPPRLPRPRPRPLCKPRP, -0.394.
With RRIRDRPPRLPRPRPRPSLWPRP, the “shrunken log2 fold change” value was determined as 1.09.
On to RRIRLRPPRLPRPRPRPPFDPRP, for which the “shrunken log2 fold change” value turned out to be 0.312.
In the case of RRIRVRPPRLPRPRPRPTMLPRP, the “shrunken log2 fold change” value is -0.205.
For RRIRCRPPRLPRPRPRPCEFPRP the value was -0.0925; for RRIRQRPPRLPRPRPRPNTWPRP, -0.191; for RRIRRRPPRLPRPRPRPGVEPRP, 0.99.
For RRIRWRPPRLPRPRPRPFLAPRP the value was -0.0712; for RRIRHRPPRLPRPRPRPGYHPRP, -0.126.
To RRIRWRPPRLPRPRPRPLDCPRP belongs -0.117; to RRIRQRPPRLPRPRPRPMDKPRP, 0.0321; to RRIRTRPPRLPRPRPRPPSDPRP, 0.498.
In the case of RRIRGRPPRLPRPRPRPVPMPRP, the “shrunken log2 fold change” value was 1.17.
As to RRIRNRPPRLPRPRPRPEGEPRP, the “shrunken log2 fold change” value was determined as 0.481.
To RRIRARPPRLPRPRPRPMHVPRP belongs -0.0248; to RRIRYRPPRLPRPRPRPIAKPRP, 0.0673; to RRIRPRPPRLPRPRPRPVETPRP, -0.158.
As to RRIRFRPPRLPRPRPRPLGEPRP, the “shrunken log2 fold change” value was determined as 0.0158.
RRIRVRPPRLPRPRPRPNCNPRP: the “shrunken log2 fold change” value is -0.273.
As to RRIRHRPPRLPRPRPRPYSRPRP, the “shrunken log2 fold change” value was -0.0123.
For RRIRHRPPRLPRPRPRPSMVPRP the value was -0.372.
For RRIRGRPPRLPRPRPRPTFCPRP the value was 0.46; for RRIRNRPPRLPRPRPRPDCDPRP, -0.132; for RRIRRRPPRLPRPRPRPAKWPRP, 0.123.
To RRIRERPPRLPRPRPRPSRRPRP belongs -0.432; to RRIRVRPPRLPRPRPRPPYTPRP, -0.268.
As to RRIRNRPPRLPRPRPRPFYLPRP, the “shrunken log2 fold change” value is -0.0716.
On to RRIRNRPPRLPRPRPRPIGSPRP, for which the “shrunken log2 fold change” value is -0.00277.
To RRIRFRPPRLPRPRPRPRMWPRP belongs 0.127; to RRIRSRPPRLPRPRPRPLHAPRP, 0.556.
For RRIRHRPPRLPRPRPRPNAVPRP the value was 0.0142; for RRIRHRPPRLPRPRPRPTDYPRP, 0.029; for RRIRMRPPRLPRPRPRPVSTPRP, 1.96.
For RRIRLRPPRLPRPRPRPAWRPRP the value was 0.454.
For the sequence RRIRKRPPRLPRPRPRPTRIPRP, the “shrunken log2 fold change” value is 0.312.
For RRIRQRPPRLPRPRPRPMRNPRP the value was -0.0579.
With RRIRARPPRLPRPRPRPAMQPRP, the “shrunken log2 fold change” value is 0.723.
To RRIRIRPPRLPRPRPRPHFTPRP belongs -0.0792; to RRIRTRPPRLPRPRPRPMFGPRP, 0.115; to RRIRMRPPRLPRPRPRPWKCPRP, -0.174.
For RRIRIRPPRLPRPRPRPPCHPRP the value was -0.463; for RRIRWRPPRLPRPRPRPFYKPRP, -0.658.
To RRIRCRPPRLPRPRPRPSPGPRP belongs 0.0883.
Consider RRIRCRPPRLPRPRPRPMTLPRP, for which the “shrunken log2 fold change” value is -0.135.
To RRIRFRPPRLPRPRPRPHWWPRP belongs 0.154.
Consider RRIRGRPPRLPRPRPRPHFNPRP, for which the “shrunken log2 fold change” value amounted to 0.232.
For RRIRARPPRLPRPRPRPRISPRP the value was 0.0223; for RRIRLRPPRLPRPRPRPCVQPRP, -0.0514; for RRIRPRPPRLPRPRPRPTCCPRP, -0.0529.
To RRIRTRPPRLPRPRPRPDGRPRP belongs -0.0138; to RRIRWRPPRLPRPRPRPWMRPRP, 0.526; to RRIRGRPPRLPRPRPRPKIQPRP, 0.369.
With RRIRVRPPRLPRPRPRPSHRPRP, the “shrunken log2 fold change” value was -0.615.
For RRIRTRPPRLPRPRPRPVGEPRP the value was -0.0292; for RRIRKRPPRLPRPRPRPGMAPRP, 0.315.
To RRIRWRPPRLPRPRPRPPTHPRP belongs 0.469; to RRIRDRPPRLPRPRPRPCCLPRP, -0.146.
To RRIRERPPRLPRPRPRPPDEPRP belongs -0.0361; to RRIRSRPPRLPRPRPRPGQHPRP, 0.178; to RRIRARPPRLPRPRPRPAYMPRP, -0.64.
With RRIRPRPPRLPRPRPRPYLPPRP, the “shrunken log2 fold change” value was -0.431.
Consider RRIRPRPPRLPRPRPRPAFAPRP, for which the “shrunken log2 fold change” value was 0.374.
To RRIRMRPPRLPRPRPRPWYDPRP belongs 0.0249.
To RRIRKRPPRLPRPRPRPPMGPRP belongs 0.185; to RRIRKRPPRLPRPRPRPCSQPRP, 0.0126.
To RRIRDRPPRLPRPRPRPQGVPRP belongs 0.0763.
Consider RRIRPRPPRLPRPRPRPEHMPRP, for which the “shrunken log2 fold change” value was -0.0558.
For RRIRCRPPRLPRPRPRPRTTPRP the value was 0.472; for RRIRNRPPRLPRPRPRPTLGPRP, 0.3.
For RRIRGRPPRLPRPRPRPKLPPRP, the “shrunken log2 fold change” value came out at 0.821.
To RRIRRRPPRLPRPRPRPGNNPRP belongs -0.365; to RRIRWRPPRLPRPRPRPAKCPRP, -0.0704.
For RRIRKRPPRLPRPRPRPLICPRP the value was 0.123; for RRIRERPPRLPRPRPRPDNVPRP, 0.0262; for RRIRGRPPRLPRPRPRPGCNPRP, 0.773.
